# Measurements taken from PMC5452015, “Sen1 has unique structural features grafted on the architecture of the Upf1‐like helicase family” (The EMBO Journal, 2017).
# T1: Sen1Hel (Saccharomyces cerevisiae, UniProt Q00416)
# T1 construct: gene SEN1; helicase core 1095-1904, ~90 kDa; C-terminal CPD-His8 tag cut off with 3C protease; expressed in E. coli BL21 (DE3) STAR pRARE
# T1 sequence (Q00416 1095-1904): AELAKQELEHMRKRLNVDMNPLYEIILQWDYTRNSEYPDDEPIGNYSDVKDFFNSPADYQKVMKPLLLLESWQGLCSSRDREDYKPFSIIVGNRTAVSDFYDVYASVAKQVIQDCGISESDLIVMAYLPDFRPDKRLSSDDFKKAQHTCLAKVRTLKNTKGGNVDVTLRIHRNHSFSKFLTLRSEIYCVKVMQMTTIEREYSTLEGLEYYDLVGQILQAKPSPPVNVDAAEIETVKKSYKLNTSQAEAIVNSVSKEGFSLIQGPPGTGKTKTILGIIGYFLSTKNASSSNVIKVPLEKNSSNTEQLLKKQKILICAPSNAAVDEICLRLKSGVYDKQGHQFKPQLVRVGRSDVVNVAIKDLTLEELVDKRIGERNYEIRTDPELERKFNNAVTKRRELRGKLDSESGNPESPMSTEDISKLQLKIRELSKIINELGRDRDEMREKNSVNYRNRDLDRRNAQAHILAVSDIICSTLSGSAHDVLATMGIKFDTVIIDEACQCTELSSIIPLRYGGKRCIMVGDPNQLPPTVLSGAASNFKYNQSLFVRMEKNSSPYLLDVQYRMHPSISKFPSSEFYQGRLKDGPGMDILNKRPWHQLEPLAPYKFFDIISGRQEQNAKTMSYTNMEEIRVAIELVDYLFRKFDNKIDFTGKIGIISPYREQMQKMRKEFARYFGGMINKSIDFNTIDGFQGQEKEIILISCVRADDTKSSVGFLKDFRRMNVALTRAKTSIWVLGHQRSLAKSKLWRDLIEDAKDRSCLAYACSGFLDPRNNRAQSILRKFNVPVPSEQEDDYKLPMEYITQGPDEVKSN
# T2: Sen1Hel (crystal construct, loop 1,471-1,538 removed) (Saccharomyces cerevisiae, UniProt Q00416, DEL1471-1538)
# T2 construct: gene SEN1; helicase core 1095-1904 with disordered loop 1471-1538 replaced by a (Gly-Ser)2 linker; C-terminal CPD-His8 tag cut off with 3C; expressed in E. coli; model covers 1096-1875
# T2 sequence (Q00416 with tags, fused parts or gaps DEL1471-1538): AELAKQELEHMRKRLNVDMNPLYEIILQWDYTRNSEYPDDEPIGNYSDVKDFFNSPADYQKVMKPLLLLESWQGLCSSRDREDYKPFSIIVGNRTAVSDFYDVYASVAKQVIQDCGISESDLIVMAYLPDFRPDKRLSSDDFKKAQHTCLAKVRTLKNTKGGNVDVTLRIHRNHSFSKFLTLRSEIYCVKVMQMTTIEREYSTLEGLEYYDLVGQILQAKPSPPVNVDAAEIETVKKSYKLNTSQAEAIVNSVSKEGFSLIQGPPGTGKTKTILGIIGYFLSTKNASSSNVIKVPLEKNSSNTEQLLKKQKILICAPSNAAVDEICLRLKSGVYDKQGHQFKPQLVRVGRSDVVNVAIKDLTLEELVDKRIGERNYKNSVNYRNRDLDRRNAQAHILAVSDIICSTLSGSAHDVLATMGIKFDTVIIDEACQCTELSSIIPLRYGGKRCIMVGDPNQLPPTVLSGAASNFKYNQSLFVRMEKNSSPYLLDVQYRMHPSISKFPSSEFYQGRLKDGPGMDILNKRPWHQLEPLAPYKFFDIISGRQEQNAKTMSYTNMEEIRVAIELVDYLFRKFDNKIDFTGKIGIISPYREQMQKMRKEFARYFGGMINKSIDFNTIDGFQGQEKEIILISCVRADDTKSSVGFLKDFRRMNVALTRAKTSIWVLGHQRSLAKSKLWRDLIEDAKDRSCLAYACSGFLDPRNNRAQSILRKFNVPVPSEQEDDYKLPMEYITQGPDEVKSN
# T3: Sen1Hel P1622L (Saccharomyces cerevisiae, UniProt Q00416 1095-1904, P1622L)
# T3 sequence: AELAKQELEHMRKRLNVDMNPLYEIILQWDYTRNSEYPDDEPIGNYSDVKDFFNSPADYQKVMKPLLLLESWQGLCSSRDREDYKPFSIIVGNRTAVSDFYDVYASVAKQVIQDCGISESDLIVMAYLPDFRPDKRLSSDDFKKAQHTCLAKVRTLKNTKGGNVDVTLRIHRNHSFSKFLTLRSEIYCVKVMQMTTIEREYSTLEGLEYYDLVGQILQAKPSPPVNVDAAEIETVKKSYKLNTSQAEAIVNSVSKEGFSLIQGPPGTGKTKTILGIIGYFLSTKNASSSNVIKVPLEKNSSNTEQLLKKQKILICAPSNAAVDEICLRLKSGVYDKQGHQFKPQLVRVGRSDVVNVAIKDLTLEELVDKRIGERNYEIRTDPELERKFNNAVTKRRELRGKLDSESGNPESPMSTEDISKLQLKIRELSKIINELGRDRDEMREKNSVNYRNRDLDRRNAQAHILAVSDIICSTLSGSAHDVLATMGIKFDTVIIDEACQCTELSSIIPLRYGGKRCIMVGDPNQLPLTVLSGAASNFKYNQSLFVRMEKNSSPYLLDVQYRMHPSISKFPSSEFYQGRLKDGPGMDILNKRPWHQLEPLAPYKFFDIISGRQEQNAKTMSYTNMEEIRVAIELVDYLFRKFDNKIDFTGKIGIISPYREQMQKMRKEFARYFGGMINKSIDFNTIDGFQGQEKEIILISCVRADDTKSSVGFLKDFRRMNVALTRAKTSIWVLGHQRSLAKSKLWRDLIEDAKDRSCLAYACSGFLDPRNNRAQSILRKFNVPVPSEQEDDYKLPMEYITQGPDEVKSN
# T4: Sen1Hel (wild type) (Saccharomyces cerevisiae, UniProt Q00416 1095-1904)
# T4 sequence: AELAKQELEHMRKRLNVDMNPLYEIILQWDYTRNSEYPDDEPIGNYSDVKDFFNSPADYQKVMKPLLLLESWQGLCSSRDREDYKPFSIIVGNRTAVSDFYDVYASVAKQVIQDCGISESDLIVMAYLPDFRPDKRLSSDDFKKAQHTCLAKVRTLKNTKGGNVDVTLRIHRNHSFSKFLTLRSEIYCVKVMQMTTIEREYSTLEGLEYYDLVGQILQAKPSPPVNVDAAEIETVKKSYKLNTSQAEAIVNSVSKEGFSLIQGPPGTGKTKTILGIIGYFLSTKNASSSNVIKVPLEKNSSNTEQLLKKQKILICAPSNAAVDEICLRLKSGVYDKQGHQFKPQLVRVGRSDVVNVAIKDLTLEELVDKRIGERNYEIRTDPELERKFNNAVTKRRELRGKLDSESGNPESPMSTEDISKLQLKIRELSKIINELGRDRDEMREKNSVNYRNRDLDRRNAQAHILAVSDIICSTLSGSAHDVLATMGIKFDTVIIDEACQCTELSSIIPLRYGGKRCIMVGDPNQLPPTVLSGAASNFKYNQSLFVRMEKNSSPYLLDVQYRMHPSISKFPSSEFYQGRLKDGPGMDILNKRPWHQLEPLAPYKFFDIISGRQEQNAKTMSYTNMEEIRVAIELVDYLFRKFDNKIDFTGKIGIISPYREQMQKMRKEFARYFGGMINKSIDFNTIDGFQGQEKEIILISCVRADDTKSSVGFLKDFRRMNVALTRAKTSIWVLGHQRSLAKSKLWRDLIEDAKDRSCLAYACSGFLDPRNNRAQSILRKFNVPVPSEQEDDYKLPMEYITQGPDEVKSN
# T5: Sen1Hel N1413S (Saccharomyces cerevisiae, UniProt Q00416 1095-1904, N1413S)
# T5 sequence: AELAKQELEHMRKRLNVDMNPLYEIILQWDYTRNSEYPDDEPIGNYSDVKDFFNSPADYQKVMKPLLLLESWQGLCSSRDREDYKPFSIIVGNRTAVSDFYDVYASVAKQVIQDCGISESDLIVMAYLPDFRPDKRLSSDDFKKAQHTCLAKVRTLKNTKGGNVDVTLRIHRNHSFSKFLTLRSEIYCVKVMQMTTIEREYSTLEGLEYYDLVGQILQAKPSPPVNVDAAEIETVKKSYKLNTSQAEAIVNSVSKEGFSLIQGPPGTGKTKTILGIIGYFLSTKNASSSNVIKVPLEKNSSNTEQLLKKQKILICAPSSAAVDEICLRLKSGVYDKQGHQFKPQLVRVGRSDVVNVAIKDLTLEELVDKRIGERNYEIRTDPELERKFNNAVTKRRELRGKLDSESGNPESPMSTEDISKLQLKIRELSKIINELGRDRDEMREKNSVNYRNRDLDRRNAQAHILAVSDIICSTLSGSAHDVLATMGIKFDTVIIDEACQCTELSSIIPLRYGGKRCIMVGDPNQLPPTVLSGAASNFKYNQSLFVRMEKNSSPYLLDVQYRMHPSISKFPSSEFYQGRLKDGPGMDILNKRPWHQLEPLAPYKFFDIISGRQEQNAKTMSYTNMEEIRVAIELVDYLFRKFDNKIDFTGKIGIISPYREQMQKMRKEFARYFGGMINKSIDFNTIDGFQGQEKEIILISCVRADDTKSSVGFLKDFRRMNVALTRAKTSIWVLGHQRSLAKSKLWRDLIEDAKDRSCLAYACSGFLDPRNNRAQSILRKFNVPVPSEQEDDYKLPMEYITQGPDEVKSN
# T6: Sen1Hel deltaLP (Saccharomyces cerevisiae, UniProt Q00416 1095-1904, del1461-1554)
# T6 sequence: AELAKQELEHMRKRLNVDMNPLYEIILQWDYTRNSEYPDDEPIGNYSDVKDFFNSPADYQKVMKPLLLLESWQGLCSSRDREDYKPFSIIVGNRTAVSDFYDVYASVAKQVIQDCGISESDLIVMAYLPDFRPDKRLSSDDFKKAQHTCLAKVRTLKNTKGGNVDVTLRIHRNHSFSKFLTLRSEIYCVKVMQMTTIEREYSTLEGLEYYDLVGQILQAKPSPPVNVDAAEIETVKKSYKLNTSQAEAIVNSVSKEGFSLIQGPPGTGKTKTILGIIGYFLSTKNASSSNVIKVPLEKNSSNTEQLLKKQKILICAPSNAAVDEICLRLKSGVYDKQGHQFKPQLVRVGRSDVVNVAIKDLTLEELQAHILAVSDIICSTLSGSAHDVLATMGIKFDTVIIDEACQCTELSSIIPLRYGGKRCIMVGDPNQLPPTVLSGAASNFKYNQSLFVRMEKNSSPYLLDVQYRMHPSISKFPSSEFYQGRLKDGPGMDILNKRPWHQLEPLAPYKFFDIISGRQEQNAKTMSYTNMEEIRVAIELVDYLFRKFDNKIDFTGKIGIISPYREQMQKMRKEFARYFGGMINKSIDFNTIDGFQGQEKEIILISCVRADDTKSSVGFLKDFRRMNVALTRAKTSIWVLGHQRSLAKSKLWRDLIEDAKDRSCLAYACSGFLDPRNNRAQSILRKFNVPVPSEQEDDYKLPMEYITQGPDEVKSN
# Columns and labels:
# [1] = molecular target: T1, Sen1Hel; assay: ATP hydrolysis, alpha-32P-ATP, thin-layer chromatography; assay type: biochemical; settings: polyU 50 ng/ul, 250 uM ATP, 1 mM MgCl2, pH 7.5, 28 C
# [2] = molecular target: T2, Sen1Hel (crystal construct, loop 1,471-1,538 removed); assay: X-ray crystal structure, […] A; assay type: binding; settings: 10-fold molar excess ADP, HEPES pH 7.5, 4 C; nucleotide site on RecA1, no RNA
# [3] = molecular target: T3, Sen1Hel P1622L; assay: fluorescence anisotropy; 2 mM Mg2+; FA: 20 mM Hepes pH 7.5, 300 mM NaCl, 2 mM MgCl2, 1 mM DTT, 20 C, 10 nM RNA; EMSA: 2 nM RNA, 10-160 nM protein (buffer not in the material); settings: protein: recombinant; tags: C-terminal CPD-His8 removed by 3C; label: 5' fluorescein
# [4] = molecular target: T4, Sen1Hel (wild type); assay: as above; settings: protein: recombinant; tags: C-terminal CPD-His8 removed by 3C; label: 5' fluorescein
# [5] = molecular target: T5, Sen1Hel N1413S; assay: fluorescence anisotropy; 2 mM Mg2+; text says impaired; FA: 20 mM Hepes pH 7.5, 300 mM NaCl, 2 mM MgCl2, 1 mM DTT, 20 C, 10 nM RNA; EMSA: 2 nM RNA, 10-160 nM protein (buffer not in the material); settings: protein: recombinant; tags: C-terminal CPD-His8 removed by 3C; label: 5' fluorescein
# [6] = molecular target: T6, Sen1Hel deltaLP; assay: EMSA; FA: 20 mM Hepes pH 7.5, 300 mM NaCl, 2 mM MgCl2, 1 mM DTT, 20 C, 10 nM RNA; EMSA: 2 nM RNA, 10-160 nM protein (buffer not in the material); settings: protein: recombinant; tags: C-terminal CPD-His8 removed by 3C; label: 5' fluorescent label
# [7] = molecular target: T4, Sen1Hel (wild type); assay: EMSA; high-order complexes at high protein; FA: 20 mM Hepes pH 7.5, 300 mM NaCl, 2 mM MgCl2, 1 mM DTT, 20 C, 10 nM RNA; EMSA: 2 nM RNA, 10-160 nM protein (buffer not in the material); settings: protein: recombinant; tags: C-terminal CPD-His8 removed by 3C; label: 5' fluorescent label
molecule,measurement,setting,value
Nc1ncnc2c1ncn2[C@@H]1O[C@H](COP(=O)(O)OP(=O)(O)OP(=O)(O)O)[C@@H](O)[C@H]1O [ATP],"ATP hydrolysis, alpha-32P-ATP, thin-layer chromatography",[1],Sen1Hel showed levels of RNA‐dependent ATPase activity similar to those of full‐length Sen1
Nc1ncnc2c1ncn2[C@@H]1O[C@H](COP(=O)(O)OP(=O)(O)O)[C@@H](O)[C@H]1O [ADP],"X-ray crystal structure, 1.8 A",[2],We crystallized Sen1Hel in the presence of ADP and determined the structure
UUUCUAUUUAUUUUG (ssRNA) [ARE 15-mer AU-rich RNA],Kd,[3],~6.4 µM
same,Kd,[4],~0.6 µM
same,binding result,[5],no binding
UUCAUUUCAGACCAGCACCCACUCACUACAACUCACGACCAGGC (ssRNA) [DL3316 44-mer RNA],binding result,[6],binds
same,binding result,[7],binds
